Key:
GLP-1 receptor [1] = molecular target: GLP-1 receptor
GLP-1 receptor [2] = molecular target: GLP-1 receptor; remark: listed apart in the source

Substance: EX (peptide)
- IC50 (GLP-1 receptor [1]): 0.1 nM
- EC50 (cAMP assay) (GLP-1 receptor [2]): 0.55 nM
